Measurements published in article PMC8865451.

Biological target: cs130Fc (human) (UniProt P40189)
Assay: SPR

hyper-IL-6 (HIL-6) gave a Kd of 0.059 nM.
